# Measured values reported in article PMC4051505, “Crystal structure of human CRMP-4: correction of intensities for lattice-translocation disorder” (Acta Crystallographica Section D: Biological Crystallography, 2014).
# B1: human CRMP-4 (collapsin response mediator protein 4), full-length, residues 1-570 (natural protein)
# chain: not shown
# notes: CRMP-4 (DPYSL3), human, residues 1-570 of NP_001378.1; only residues 12-496/497 (crystal form A) or 12-499 (form B) are resolved in the electron density; The vector pNIC28-Bsa4 extends the coding region by 23 N-terminal residues (hexahistidine tag and TEV site); The tag was deliberately not cleaved for the full-length protein; Homotetramer in both crystal forms and in solution; also called …
# B2: truncated human CRMP-4 (CRMP-4 ΔC), residues 13-490 (domain or fragment)
# chain: not shown
# notes: CRMP-4 (DPYSL3), human, residues 13-490 of NP_001378.1; The His tag was removed with TEV protease; A serine from the TEV cleavage site is visible in chains C and D of the structure; Judging from the primer, Ser-Met probably remains before residue 13; Tetramer in the crystal, lower oligomers in solution; also called CRMP-4 ΔC (13-490); source: E. coli BL21(DE3)pLysS, purified (Ni-NTA, TEV …)
# Assays:
# [1] = target: the molecule itself; test: crystal structure; CRMP-4 (1-570) crystal form A, space group P21, twinned; 15%(w/v) PEG 6000, 100 mM Na HEPES pH 7.5, 100 mM KCl; protein 15 mg/ml; data at 100 K
# [2] = target: the molecule itself; test: crystal structure; CRMP-4 ΔC (13-490), space group P21; 30%(w/v) PEG 3350, 100 mM sodium tartrate, 100 mM bis-tris propane pH 6.5; protein 18 mg/ml; data at 100 K
Protein,stoichiometry N [1],stoichiometry N [2]
B1,4,–
B2,–,4
